T1: recombinant human CTGF protein (R&D Systems, SEQ ID NO: 79) (human, UniProt P29279 27-349)
T1 construct: Bought; also called human CTGF/CNN2; huCTGF
T1 sequence: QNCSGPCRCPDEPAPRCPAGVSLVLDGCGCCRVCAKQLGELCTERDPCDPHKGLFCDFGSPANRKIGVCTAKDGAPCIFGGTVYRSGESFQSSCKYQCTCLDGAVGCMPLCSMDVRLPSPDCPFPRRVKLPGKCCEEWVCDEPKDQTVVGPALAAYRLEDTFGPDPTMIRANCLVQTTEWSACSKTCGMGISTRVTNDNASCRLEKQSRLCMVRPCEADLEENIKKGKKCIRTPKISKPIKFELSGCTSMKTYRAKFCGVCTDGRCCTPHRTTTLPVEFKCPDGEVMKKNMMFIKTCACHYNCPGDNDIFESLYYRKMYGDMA

T2: huCYR61 (human, UniProt O00622 25-381, limits assumed)
T2 construct: also called human CYR61 (CCN1)
T2 sequence (looked up): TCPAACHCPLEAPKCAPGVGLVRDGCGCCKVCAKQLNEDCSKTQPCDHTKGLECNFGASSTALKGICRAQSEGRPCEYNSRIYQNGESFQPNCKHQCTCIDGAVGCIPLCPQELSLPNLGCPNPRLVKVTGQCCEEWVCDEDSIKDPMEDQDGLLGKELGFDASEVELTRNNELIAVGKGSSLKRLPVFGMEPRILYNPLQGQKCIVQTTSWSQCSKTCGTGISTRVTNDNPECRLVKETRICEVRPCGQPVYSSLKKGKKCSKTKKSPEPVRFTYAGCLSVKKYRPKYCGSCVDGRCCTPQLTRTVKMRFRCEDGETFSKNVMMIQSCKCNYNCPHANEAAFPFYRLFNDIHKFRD

T3: huNOV (human, UniProt P48745 32-357, limits assumed)
T3 construct: also called human NOV (CCN3)
T3 sequence (looked up): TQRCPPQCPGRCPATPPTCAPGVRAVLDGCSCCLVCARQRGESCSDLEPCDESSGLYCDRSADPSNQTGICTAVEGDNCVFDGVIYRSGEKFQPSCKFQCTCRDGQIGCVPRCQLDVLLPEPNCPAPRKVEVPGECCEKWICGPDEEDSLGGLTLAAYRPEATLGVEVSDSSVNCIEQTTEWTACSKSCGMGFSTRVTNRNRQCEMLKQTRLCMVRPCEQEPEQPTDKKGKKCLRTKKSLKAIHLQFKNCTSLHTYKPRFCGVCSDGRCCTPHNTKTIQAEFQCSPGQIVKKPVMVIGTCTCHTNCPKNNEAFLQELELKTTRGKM

T4: huWISP-1 (human, UniProt O95388 23-367, limits assumed)
T4 construct: also called human WISP-1 (CCN4)
T4 sequence (looked up): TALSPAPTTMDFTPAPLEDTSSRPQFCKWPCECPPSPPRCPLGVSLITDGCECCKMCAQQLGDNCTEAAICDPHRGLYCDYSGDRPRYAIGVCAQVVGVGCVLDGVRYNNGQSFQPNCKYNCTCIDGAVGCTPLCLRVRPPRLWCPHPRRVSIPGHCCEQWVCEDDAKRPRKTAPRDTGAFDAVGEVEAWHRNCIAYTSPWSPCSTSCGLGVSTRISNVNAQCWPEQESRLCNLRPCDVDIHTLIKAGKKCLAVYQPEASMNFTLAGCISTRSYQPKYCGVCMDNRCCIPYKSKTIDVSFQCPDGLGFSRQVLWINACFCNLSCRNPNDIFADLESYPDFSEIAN

T5: huWISP-2 (human, UniProt O76076 24-250, limits assumed)
T5 construct: also called human WISP-2 (CCN5)
T5 sequence (looked up): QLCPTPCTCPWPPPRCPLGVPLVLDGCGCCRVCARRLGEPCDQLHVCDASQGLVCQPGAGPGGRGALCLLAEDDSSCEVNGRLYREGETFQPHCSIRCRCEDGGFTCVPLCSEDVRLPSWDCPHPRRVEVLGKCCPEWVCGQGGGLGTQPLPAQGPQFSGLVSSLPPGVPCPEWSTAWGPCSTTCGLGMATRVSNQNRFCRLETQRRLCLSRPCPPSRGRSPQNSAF

T6: huWISP-3 (human, UniProt O95389 24-354, limits assumed)
T6 construct: also called human WISP-3 (CCN6)
T6 sequence (looked up): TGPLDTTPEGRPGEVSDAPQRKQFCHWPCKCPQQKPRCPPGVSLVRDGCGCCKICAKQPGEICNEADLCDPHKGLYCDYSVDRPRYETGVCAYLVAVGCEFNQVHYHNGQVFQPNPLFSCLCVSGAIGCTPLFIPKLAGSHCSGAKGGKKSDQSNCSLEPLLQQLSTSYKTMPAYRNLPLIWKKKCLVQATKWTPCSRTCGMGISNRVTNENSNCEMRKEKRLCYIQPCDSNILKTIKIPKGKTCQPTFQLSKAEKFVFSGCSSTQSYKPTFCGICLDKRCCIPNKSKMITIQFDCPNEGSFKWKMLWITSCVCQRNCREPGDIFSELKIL


How the values were obtained:
[1] = biological target: T1, recombinant human CTGF protein (R&D …); assay: ELISA, coated human CTGF
Procedure: (§1) Binding of fusion proteins was tested by an ELISA assay. In detail, a 384-well plate suitable for fluorescence measurements (Greiner FLUOTRAC™ 600, black flat bottom, high-binding) was coated with 20 μl of human CTGF (R&D Systems) at a concentration of 1 μg/ml in PBS over night at 4° C. After washing with PBS with 0.05% Tween 20, wells were blocked with 100 μl blocking buffer containing 0.1% Tween 20 and 2% BSA (PBS-T/BSA) for 1 h at room temperature. 20 μl of serially diluted muteins were incubated in PBS-T/BSA for 1 h at room temperature (RT).
(§2) The residual supernatants were discarded and 20 μl HRP-labeled anti-NGAL or anti-His-Tag antibody was added at a predetermined optimal concentration in PBS-T/BSA and incubated for 1 h at RT. After washing, 20 μl fluorogenic HRP substrate (QuantaBlu, Thermo) was added to each well, and the reaction was allowed to proceed for 2 to 60 minutes. The fluorescence intensity of every well on the plate was read using a fluorescence microplate reader (Tecan). Curve fitting was performed using GraphPad Prism 7 or 8 software.

huCYR61 = biological target: T2, huCYR61; assay: ELISA, coated CCN protein
Procedure: as §1, with “muteins to closely related” for “fusion”, “proteins of CTGF” for “proteins”, “or the other members of the CCN protein family” for “(R&D Systems)”, “muteins starting at 1000 nM” for “muteins”
as §2, with “anti-Strep-Tag” for “anti-His-Tag”, “When the signal for human CTGF approached saturation, the cross reactivity to the other proteins” for “Curve fitting”, “assessed.” for “performed using GraphPad Prism 7 or 8 software.”

huNOV = biological target: T3, huNOV; assay: ELISA, coated CCN protein
Procedure: as §1, with “muteins to closely related” for “fusion”, “proteins of CTGF” for “proteins”, “or the other members of the CCN protein family” for “(R&D Systems)”, “muteins starting at 1000 nM” for “muteins”
as §2, with “anti-Strep-Tag” for “anti-His-Tag”, “When the signal for human CTGF approached saturation, the cross reactivity to the other proteins” for “Curve fitting”, “assessed.” for “performed using GraphPad Prism 7 or 8 software.”

huWISP-1 = biological target: T4, huWISP-1; assay: ELISA, coated CCN protein
Procedure: as §1, with “muteins to closely related” for “fusion”, “proteins of CTGF” for “proteins”, “or the other members of the CCN protein family” for “(R&D Systems)”, “muteins starting at 1000 nM” for “muteins”
as §2, with “anti-Strep-Tag” for “anti-His-Tag”, “When the signal for human CTGF approached saturation, the cross reactivity to the other proteins” for “Curve fitting”, “assessed.” for “performed using GraphPad Prism 7 or 8 software.”

huWISP-2 = biological target: T5, huWISP-2; assay: ELISA, coated CCN protein
Procedure: as §1, with “muteins to closely related” for “fusion”, “proteins of CTGF” for “proteins”, “or the other members of the CCN protein family” for “(R&D Systems)”, “muteins starting at 1000 nM” for “muteins”
as §2, with “anti-Strep-Tag” for “anti-His-Tag”, “When the signal for human CTGF approached saturation, the cross reactivity to the other proteins” for “Curve fitting”, “assessed.” for “performed using GraphPad Prism 7 or 8 software.”

huWISP-3 = biological target: T6, huWISP-3; assay: ELISA, coated CCN protein
Procedure: as §1, with “muteins to closely related” for “fusion”, “proteins of CTGF” for “proteins”, “or the other members of the CCN protein family” for “(R&D Systems)”, “muteins starting at 1000 nM” for “muteins”
as §2, with “anti-Strep-Tag” for “anti-His-Tag”, “When the signal for human CTGF approached saturation, the cross reactivity to the other proteins” for “Curve fitting”, “assessed.” for “performed using GraphPad Prism 7 or 8 software.”

[2] = biological target: T1, recombinant human CTGF protein (R&D …); assay: HTRF, 1 nM biotinylated human CTGF
Procedure: Binding of some fusion proteins was tested by a Homogeneous Time Resolved Fluorescence (HTRF assay). In detail, 1 nM of biotinylated human CTGF (R&D Systems) was incubated for 1 h with a titration of some lipocalins starting at 5 nM in 384 Flat Bottom White Polystyrol microtiter plate (Greiner). Samples were diluted in PBS containing 0.1% Tween 20 and 2% BSA. As donor, Streptavidin-Terbium at a concentration of 0,006 μg/mL was used, the acceptor was 0.2 μg/mL anti-His-d2 (both CisBio). After another 1 h of incubation, the fluorescence intensity of the donor and acceptor on the plate was read using a fluorescence microplate reader M1000 (Tecan) with the standard settings recommended by CisBio. The calculated ratio of signals was used for the curve fitting performed in GraphPad Prism 7 software.

[3] = biological target: T7, recombinant human CTGF-Fc protein (Creative Biomart) (human); assay: SPR (Biacore); B = binding without determination of kinetics constants
T7 construct: Bought; also called human CTGF with a human IgG1 Fc Tag
Procedure: The binding of exemplary lipocalin muteins to human (Creative Biomart), cynomolgus, rat (R&D Systems) and mouse CTGF (Abbexa) was determined by SPR using a Biacore instrument (Cytiva, formerly GE Healthcare). Some targets were fused to a human IgG1 Fc tag, and captured via the anti-human IgG antibody kit, others were directly immobilized.
For some measurements, human CTGF with a human IgG1 Fc Tag or rat or murine CTGF without a tag were directly immobilized to a CM5 Chip. The carboxyl groups on the chip were activated using 1-ethyl-3-(3-dimethylaminopropyl)-carbodiimide (EDC) and N-hydroxysuccinimide (NHS). […] Residual non-reacted NHS-esters were blocked by passing a solution of 1 M ethanolamine across the surface. The reference channel was activated/deactivated. For the capture setting, targets with an IgG Fc Tag at 0.25-2.5 μg/mL in HBS-EP+ buffer were captured by the anti-human IgG-Fc antibody at the chip surface for 180 s at a flow rate of 10 μL/min.
The binding assay was carried out with a contact time of 180 s, a dissociation time of 900-3600 s and a flow rate of 30 μL/min. All measurements were performed at 25° C. […] For the directly immobilized targets, the same regeneration conditions were used. Prior to the protein measurements, three startup cycles were performed for conditioning purposes.

EC50 [1] [nM]	EC50 [2] [nM]	binding result [3]	Binder	binding result (huCYR61)	binding result (huNOV)	binding result (huWISP-1)	binding result (huWISP-2)	binding result (huWISP-3)
0.26	0.59		fusion protein of SEQ ID NO: 74 (designed binder, not shown: C-terminal His-tag) QDSTSDLIPAPPLSKVPLQQNFQDNQFQGKWYVVGLAGNAILREDKQPAKMFATIYELKEDKSYDVTSVRFEAKSCKYTIKTFVPGSQPGEFTAGYIKSAPGQTSTLVRVVSTNYNQHAMVFFKHVTQNREIFVITLYGRTKELTSELKENFIRFSKSLGLPENHIVFPVPIDQCIDGGGGGSGGGGSGGGGSQDSTSDLIPAPPLSKVPLQQNFQDNQFQGKWYVVGWAGNVKLREDKQPQKMSATIYELKEDKSYDVTEVVFEQKKCHYIIKTFVPGSQPGEFTAGDIKSPPGYTSSLVRVVSTNYNQHAMVFFKKVSQNREFFWITLYGRTKELTSELKENFIRFSKSLGLPENHIVFPVPIDQCIDG	no binding (tested: dilutions starting at 1000 nM)	no binding (tested: dilutions starting at 1000 nM)	no binding (tested: dilutions starting at 1000 nM)	no binding (tested: dilutions starting at 1000 nM)	no binding (tested: dilutions starting at 1000 nM)
0.24	0.62		fusion protein of SEQ ID NO: 76 (designed binder, not shown: C-terminal His-tag) QDSTSDLIPAPPLSKVPLQQNFQDNQFQGKWYVVGLAGNAILREDKQPAKMFATIYELKEDKSYDVTSVRFEAKSCKYTIKTFVPGSQPGEFTAGYIKSAPGQTSTLVRVVSTNYNQHAMVFFKHVTQNREIFVITLYGRTKELTSELKENFIRFSKSLGLPENHIVFPVPIDQCIDGGGGGSGGGGSGGGGSQDSTSDLIPAPPLSKVPLQQNFQDNQFQGKWYVVGWAGNVKLREDKQPLKMSATIYELKEDKSYDVTEVVFEQKKCHYIIKTFVPGSQPGEFTAGDIKSPPGYTSSLVRVVSTNYNQHAMVFFKKVSQNREFFWITLYGRTKELTSELKENFIRFSKSLGLPENHIVFPVPIDQCIDG	no binding (tested: dilutions starting at 1000 nM)	no binding (tested: dilutions starting at 1000 nM)	no binding (tested: dilutions starting at 1000 nM)	no binding (tested: dilutions starting at 1000 nM)	no binding (tested: dilutions starting at 1000 nM)
		binds	lipocalin mutein of SEQ ID NO: 17 (designed binder, also called hNGAL mutein; not shown: C-terminal His-tag) QDSTSDLIPAPPLSKVPLQQNFQDNQFQGKWYVVGLAGNAILRTDKQPAKMFATIYELKEDKSYDVTSVRFEAKSCVYTSKTFVPGSQPGEFTAGNIKSAPGQTSTLVRVVSTNYNQHAMVFFKHVSQNREFFVITLYGRTKELTSELKENFIRFSKSLGLPENHIVFPVPIDQCIDG					
		binds	lipocalin mutein of SEQ ID NO: 20 (designed binder, also called hNGAL mutein; not shown: C-terminal His-tag) QDSTSDLIPAPPLSKVPLQQNFQDNQFQGKWYVVGLAGNAILREDKQPAKMFATIYELKEDKSYDVTSVRFEAKSCSYTIKTFVPGSQPGEFTAGNIKSAPGQTSTLVRVVSTNYNQHAMVFAKAVQLNREHFFITLYGRTKELTSELKENFIRFSKSLGLPENHIVFPVPIDQCIDG					
